# Measurements taken from patent publication US12606635B2, “Glypican-2-binding moieties, chimeric antigen receptors and uses thereof” (Nanjing Legend Biotech Co., Ltd., priority 2020, dated 2026).
# T1: recombinant human GPC2-His protein (Homo sapiens, UniProt Q8N158)
# T1 construct: His
# T1 sequence (Q8N158 24-554): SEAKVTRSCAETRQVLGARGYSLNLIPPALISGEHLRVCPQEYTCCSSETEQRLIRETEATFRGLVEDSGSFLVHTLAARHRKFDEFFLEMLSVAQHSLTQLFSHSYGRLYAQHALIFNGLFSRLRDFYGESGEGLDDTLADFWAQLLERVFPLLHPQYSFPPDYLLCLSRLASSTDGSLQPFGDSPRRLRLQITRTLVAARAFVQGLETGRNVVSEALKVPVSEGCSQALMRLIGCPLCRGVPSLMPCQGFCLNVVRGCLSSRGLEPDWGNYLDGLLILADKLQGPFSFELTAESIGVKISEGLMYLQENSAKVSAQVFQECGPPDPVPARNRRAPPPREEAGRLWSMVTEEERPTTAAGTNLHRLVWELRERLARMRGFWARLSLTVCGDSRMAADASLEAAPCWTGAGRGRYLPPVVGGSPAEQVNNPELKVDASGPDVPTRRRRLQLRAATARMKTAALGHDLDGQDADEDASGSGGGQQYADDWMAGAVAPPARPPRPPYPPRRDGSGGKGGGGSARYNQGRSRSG
# Target: T1, recombinant human GPC2-His protein
# Experiment: SPR (Biacore T200) affinity of anti-GPC2 VHH-hIgG1Fc
# Settings: 1:1 binding model
# Protocol: Each of the exemplary anti-GPC2 VHH sequences was cloned into a vector comprising a human IgG1Fc fragment (hlgG1Fc) sequence to facilitate recombinant expression of anti-GPC2 VHH-hlgG1Fc. Recombinant proteins were obtained and purified for SPR assays. The affinity of each anti-GPC2 VHH-hIgG1Fc for GPC2 was determined by SPR using a BIACORE® T200 analytical system (GE Healthcare). Briefly, recombinant human GPC2-His protein was covalently coupled to a CM5(s) sensor chip using an amine coupling kit. Exemplary VHH-hIgG1Fc proteins were serially diluted in running buffer (10 mM HEPES, 150 mM NaCl, 3 mM EDTA, 0.05% Tween-20, pH 7.4) and injected over the chip cell at a flowrate of 100 μL/min for 100 seconds followed by buffer-only injection for 300 seconds to allow for antibody dissociation. The dissociation […] (KD) were determined using the BIACORE® T200 evaluation software version 3.0 (Langmuir binding, local fit, 1:1 binding model).
Molecule,ka [M⁻¹ s⁻¹],kd [s⁻¹]
"AS71529VH6-AS70950VH6-hIgG1Fc: tandem AS71529VH6-AS70950VH6 VHH fused to human IgG1Fc fragment (protein, left off: a dimerising Fc or GST, tandem AS71529VH6-AS70950VH6 VHH fused to human IgG1Fc fragment) EVQLVESGGGLVQPGGSLRLSCAVSEYRYSSRYCMGWFRQAPGKGREGVAAIDSNGSADYVDSVKGRFTISKDNSKNTLYLQMNSLRAEDTAMYYCAADHLAYDCYSGATSVFRYWGQGTLVTVSSGGGGSGGGGSGGGGSEVQLVESGGGLVQPGGSLRLSCAISEFTYKNTCVGWFRQAPGKGREGVAAIDSDGNTNYVDSVKGRFTISQDNSKNTVYLQMNSLRAEDTAMYYCAAGAYCGRLLLWIGNYAYWGQGTLVTVSS",320000,6.1e-05
"AS72669VH6-hIgG1Fc: AS72669VH6 VHH fused to human IgG1Fc fragment (protein, left off: a dimerising Fc or GST, AS72669VH6 VHH fused to human IgG1Fc fragment) QVQLVESGGGVVQPGGSLRLSCAASRFTYSSYCMGWIRQAPGKGREGVAIFYTGGGRTYYADSVKGRFTISQDNSKNTLYLQMNSLRAEDTAVYYCVAGFYCSGGYWEGDFGYWGQGTLVTVSS",520000,7.7e-05

# Tested on: human neuroblastoma cell line SH-SY5Y
# Experiment: In vitro cytotoxicity assay (LDH), SH-SY5Y
# Format: cell-based
# Settings: second group, FIG. 6C
# Protocol: The pre-activated T cells were transduced with lentivirus stock in the presence of […] polybrene and 300 IU/mL IL-2. T cells and lentivirus were centrifuged at 1000 g, 32° C. for 1 h and placed in humidified cell culture incubator for transgene expression under suitable conditions. On day 5 or day 7 or day 10 post-transduction, transduced T cells were harvested and co-incubated with tumor cells at an effector (CAR T) to target cell ratio of 10:1 or 5:1 or 2:1 or 1:1 or 0.2:1 for 20 hours. Target cells were human neuroblastoma cell line SH-SY5Y (ATCC, #CRL-2266), human neuroblastoma cell line IMR-32 cells (ATCC, #CCL-127), or human epidermoid carcinoma cell line A-431 (ATCC, #CRL-1555). To assay the cytotoxicity of CAR T cells on tumor cells, the Cytotoxicity Detection Kit (LDH) (Roche, #11644793001) assay reagents were prepared according to manufacturer's protocol. Reaction mix was added to the cell-free supernatant of each sample to detect the LDH released from cells. Optical densities at OD492 nm and OD650 nm were measured by PHERStar Microplate Reader. Baseline LDH released from the target cell in the absence of effector cells and effector cell in the absence of target cells were subtracted from the total LDH amount. The target maximum release was obtained by adding Triton-X100 at a final concentration of 1% to target cells in the absence of effector cells at the time when the cytotoxicity assays initiated. Supernatant from target cells in the absence of effector cells was used for target minimum release. The specific cytotoxicity was calculated by the formula: % Target cell lysis=100*[(OD CAR T cell+Target cell)−(OD CAR T cell)−(OD Target cell)+(OD Buffer background)]/(OD Target Maximum release−OD Target Minimum release).
# On day 5 or day 8 or day 10 post-transduction, transduced T cells were harvested and co-incubated with tumor cells at an effector (CAR T) to target cell ratio of 10:1 or 1:1 or 0.2:1 for 20 hours. To assay the cytotoxicity of CAR T cells on tumor cells, the Cytotoxicity Detection Kit (LDH) (Roche, #11644793001) was added to the culture supernatant and the specific cytotoxicity for each CAR T cell construct was measured as described in Example 6.
row,Molecule,"cytotoxicity against SH-SY5Y compared with CAS70950-BBz, CAS72052-BBz and CAS72669-BBz"
1,"CAS79101-BBz: camel VHH anti-GPC2 CAR (4-1BB, CD3ζ), SEQ ID NO: 215; tested as CAR T cells (protein, expressed in CAR T cells; CAS79101-BBz) MALPVTALLLPLALLLHAARPQVQLVESGGGSVQAGGSLRLSCAASGDTYSNYCMGWFRQAPGKEREEVAAIDSDGSRRYPDSVKGRFTISKDNAKKILYLQMNSLKPEDTAMYFCATDPKVACARVVEYGGGWYRWGQGTQVTVSSTTTPAPRPPTPAPTIASQPLSLRPEACRPAAGGAVHTRGLDFACDIYIWAPLAGTCGVLLLSLVITLYCKRGRKKLLYIFKQPFMRPVQTTQEEDGCSCRFPEEEEGGCELRVKFSRSADAPAYKQGQNQLYNELNLGRREEYDVLDKRRGRDPEMGGKPRRKNPQEGLYNELQKDKMAEAYSEIGMKGERRRGKGHDGLYQGLSTATKDTYDALHMQALPPR",better cytotoxicity
2,"CAS77916-BBz: camel VHH anti-GPC2 CAR (4-1BB, CD3ζ), SEQ ID NO: 207; tested as CAR T cells (protein, expressed in CAR T cells; CAS77916-BBz) MALPVTALLLPLALLLHAARPQVHLMESGGGSVQAGGSLRLSCATSGYTSSWNCMGWFRQPPGKEREGVATIANRGHSTYYADSVKGRFTISQGNAKNTVYLQMNSLKPEDTAMYYCATDTWACVGISTDFEYWGQGTQVTVSSTTTPAPRPPTPAPTIASQPLSLRPEACRPAAGGAVHTRGLDFACDIYIWAPLAGTCGVLLLSLVITLYCKRGRKKLLYIFKQPFMRPVQTTQEEDGCSCRFPEEEEGGCELRVKFSRSADAPAYKQGQNQLYNELNLGRREEYDVLDKRRGRDPEMGGKPRRKNPQEGLYNELQKDKMAEAYSEIGMKGERRRGKGHDGLYQGLSTATKDTYDALHMQALPPR",better cytotoxicity
3,"CAS77932-BBz: camel VHH anti-GPC2 CAR (4-1BB, CD3ζ), SEQ ID NO: 208; tested as CAR T cells (protein, expressed in CAR T cells; CAS77932-BBz) MALPVTALLLPLALLLHAARPQVQLKESGGGSVQAGGSLRLSCAVSGYWYSVAWMGWFRQTPGKEREGVAAVLNGGGRRYYADSVKGRFTISQDNSKNTLYLQMNSLKPEDTAMYYCAAGNGVGHPLGPSEYNYWGQGTQVTVSSTTTPAPRPPTPAPTIASQPLSLRPEACRPAAGGAVHTRGLDFACDIYIWAPLAGTCGVLLLSLVITLYCKRGRKKLLYIFKQPFMRPVQTTQEEDGCSCRFPEEEEGGCELRVKFSRSADAPAYKQGQNQLYNELNLGRREEYDVLDKRRGRDPEMGGKPRRKNPQEGLYNELQKDKMAEAYSEIGMKGERRRGKGHDGLYQGLSTATKDTYDALHMQALPPR",better cytotoxicity
4,"CAS78117-BBz: camel VHH anti-GPC2 CAR (4-1BB, CD3ζ), SEQ ID NO: 212; tested as CAR T cells (protein, expressed in CAR T cells; CAS78117-BBz) MALPVTALLLPLALLLHAARPQVKLVESGGGSVQAGGALRLSCIVRRYTYATYSMAWFRQSPGKEREGVAGLDSVGATGYAESVKGRFTISKDNAKNILYLQMNSLKPEDTAMYYCVVDPASAKVTYGSWSTPSYAYWGQGTQVTVSSTTTPAPRPPTPAPTIASQPLSLRPEACRPAAGGAVHTRGLDFACDIYIWAPLAGTCGVLLLSLVITLYCKRGRKKLLYIFKQPFMRPVQTTQEEDGCSCRFPEEEEGGCELRVKFSRSADAPAYKQGQNQLYNELNLGRREEYDVLDKRRGRDPEMGGKPRRKNPQEGLYNELQKDKMAEAYSEIGMKGERRRGKGHDGLYQGLSTATKDTYDALHMQALPPR",better cytotoxicity
5,"CAS79236-BBz: camel VHH anti-GPC2 CAR (4-1BB, CD3ζ), SEQ ID NO: 216; tested as CAR T cells (protein, expressed in CAR T cells; CAS79236-BBz) MALPVTALLLPLALLLHAARPQVKLVESGGGSVQAGGSLRLSCAVSGYTYSSYCMAWFRQAPGEEREGVASIDAGGRTTYVDSVKGRFTISKDNAKTSLYLQMNSLKPEDTAMYYCAVDVRTRCGGTWDGEAVYFPYWGQGTQVTVSSTTTPAPRPPTPAPTIASQPLSLRPEACRPAAGGAVHTRGLDFACDIYIWAPLAGTCGVLLLSLVITLYCKRGRKKLLYIFKQPFMRPVQTTQEEDGCSCRFPEEEEGGCELRVKFSRSADAPAYKQGQNQLYNELNLGRREEYDVLDKRRGRDPEMGGKPRRKNPQEGLYNELQKDKMAEAYSEIGMKGERRRGKGHDGLYQGLSTATKDTYDALHMQALPPR",better cytotoxicity
6,"CAS77986-BBz: camel VHH anti-GPC2 CAR (4-1BB, CD3ζ), SEQ ID NO: 211; tested as CAR T cells (protein, expressed in CAR T cells; CAS77986-BBz) MALPVTALLLPLALLLHAARPQVQLVESGGGSVQAGGSLRLSCAASASGYTYSSDSMAWFRQAPGKEREGVAGISTGGRSTYYADSVKGRFTISQDNAKTTVYLHMNSLKPEDTAMYYCAADGPSMTAIQALGDLYPVDFAWWGQGTQVTVSSTTTPAPRPPTPAPTIASQPLSLRPEACRPAAGGAVHTRGLDFACDIYIWAPLAGTCGVLLLSLVITLYCKRGRKKLLYIFKQPFMRPVQTTQEEDGCSCRFPEEEEGGCELRVKFSRSADAPAYKQGQNQLYNELNLGRREEYDVLDKRRGRDPEMGGKPRRKNPQEGLYNELQKDKMAEAYSEIGMKGERRRGKGHDGLYQGLSTATKDTYDALHMQALPPR",better cytotoxicity
